T1: human BCMA on cells (human, UniProt Q02223 1-184)
T1 construct: also called hBCMA; BCMA on NCI-H929, ARP-1, OPM-2, U266B1, MM.1S, RPMI-8226 cells
T1 sequence: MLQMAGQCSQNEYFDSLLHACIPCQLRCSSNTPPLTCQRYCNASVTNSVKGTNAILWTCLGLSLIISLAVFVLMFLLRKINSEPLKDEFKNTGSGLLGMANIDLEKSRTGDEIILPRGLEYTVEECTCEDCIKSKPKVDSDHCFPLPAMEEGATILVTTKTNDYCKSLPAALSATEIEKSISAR

T2: human BCMA-Fc (human, UniProt Q02223 1-54)
T2 construct: Bought from R&D Systems; also called huBCMA-Fc; not shown: Fc part not described
T2 sequence: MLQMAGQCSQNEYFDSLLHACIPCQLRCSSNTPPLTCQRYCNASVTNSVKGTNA


Tests used:
cynomolgus BCMA on cells = cynomolgus BCMA on cells (cynomolgus monkey, UniProt Q02223 1-184 (human entry)); experiment: FACS, 293T-cynoBCMA cells
cynomolgus BCMA on cells, sequence (Q02223 other isoform, or with tags, fused parts or gaps): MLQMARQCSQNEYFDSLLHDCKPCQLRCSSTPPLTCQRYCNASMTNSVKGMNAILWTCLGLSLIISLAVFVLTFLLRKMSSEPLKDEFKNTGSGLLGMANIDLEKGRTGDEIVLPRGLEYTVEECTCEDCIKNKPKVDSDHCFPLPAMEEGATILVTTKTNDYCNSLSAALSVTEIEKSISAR
Method: (§1) Variants for which sufficient protein was purified in secondary screening were tested in a fluorescence-activated cell sorting (FACS) cell-binding assay. […] 6-12 point dilutions of anti-BCMA variants starting from concentrations of about 100-200 nM antibody were dispensed into each well using a BioMekFX (Beckman Coulter). Cells were then incubated on ice for 1 hr, washed with FACS buffer and incubated for 1 hr on ice with […] FACS buffer containing 2.5 μg/ml Alexa647-conjugated Goat Anti-Human IgG dispensed using BioMekFX (Beckman Coulter). Cells were then washed 2× with FACS buffer and fixed for 10 minutes in […] PBS with 2% paraformaldehyde (PFA) prior to fluorescence detection. Samples were acquired using a Beckton Dickinson LSRII FACS. Geometric Mean Fluorescence Intensity of BCMA antibody binding was analyzed using FlowJo® software (Tree Star, Inc.).

human BCMA on cells = target: T1, human BCMA on cells; experiment: FACS, NCI-H929 cells
Method: as §1

cyno BCMA-Fc = target: T3, cyno BCMA-Fc (cynomolgus monkey, UniProt Q02223 1-54 (human entry)); experiment: SPR Biacore, antibody captured, 25 C
T3 construct: Custom protein production; also called cynomolgus BCMA-Fc; not shown: Fc part not described
Method: (§2) Anti-Fab or anti-Fc polyclonal antibodies were immobilized onto a CM5 chip (GE Life Sciences) using amine coupling chemistry (from Amine Coupling Kit, GE Life Sciences). The immobilization steps were carried out at a flow rate of 25 μL/min in 1×HBS-EP+ buffer (GE Life Sciences; 10× Stock diluted before use). The sensor surfaces were activated for 7 min with a mixture of NHS (0.05 M) and EDC (0.2 M). The anti-Fab or anti-Fc antibodies were injected over all 4 flow cells at a concentration of 25 μg/ml in 10 mM sodium acetate, pH 4.5, for 7 min. Ethanolamine (1 M, pH 8.5) was injected for 7 min to block any remaining activated groups.
(§3) Off-rate and kinetic binding experiments were performed at 25° C. using 1×HBS-EP+ buffer. […] After capturing ligand (antibody) on the anti-Fab or anti-Fc surface, the analyte (human BCMA-Fc, cyno BCMA-Fc, or human BCMA from R&D Systems, custom protein production, or Sigma Aldrich, respectively) was bound for 180 seconds, followed by a 600 second dissociation phase at a flow rate of 50 μL/min. Between each ligand capture and analyte binding cycle, regeneration was carried out using 2 injections of 10 mM glycine pH 2.0 for 30 seconds at 30 μL/min, followed by a 30 second buffer wash step.
(§4) The data was fit with the Biacore T200 Evaluation software, using a 1-1 Langmuir binding model. KD (affinity, nM) was determined as a ratio of the kinetic rate constants calculated from the fits of the association and dissociation phases.

human BCMA-Fc = target: T2, human BCMA-Fc; experiment: SPR Biacore, antibody captured, 25 C
Method: as §2, §3, §4

Binder | Bmax (cynomolgus BCMA on cells) | Kd (cynomolgus BCMA on cells) | Bmax (human BCMA on cells) | Kd (human BCMA on cells) | Kd (cyno BCMA-Fc) | koff (cyno BCMA-Fc) | kon (cyno BCMA-Fc) | Kd (human BCMA-Fc) | koff (human BCMA-Fc) | kon (human BCMA-Fc)
2265-A09 (antibody, V domains shown, also called Antibody 6) VH: EVQLVESGGGLVQPGGSLRLSCAASGFNIIGPGIHWVRQAPGKGLEWVGFINPAGGYTDYADSVKGRFTISADTSKNTAYLQMNSLRAEDTAVYYCARDYVYNYWTYVLDYWGQGTLVTVSS VL: not shown | 18500 MFI | 3 nM | 12700 MFI | 10.3 nM | 6.43 nM | 0.00173 s⁻¹ | 270000 M⁻¹ s⁻¹ | 0.589 nM | 0.000318 s⁻¹ | 539000 M⁻¹ s⁻¹
2265-A06 (antibody, V domains shown, also called Antibody 13) VH: EVQLVESGGGLVQPGGSLRLSCAASGFNIYRSGIHWVRQAPGKGLEWVGFINPAGGYTDYADSVKGRFTISADTSKNTAYLQMNSLRAEDTAVYYCARDYVPQYWTYVLDYWGQGTLVTVSS VL: not shown | 22100 MFI | 3.8 nM | 11100 MFI | 5.7 nM | 6.24 nM | 0.00156 s⁻¹ | 249000 M⁻¹ s⁻¹ | 0.789 nM | 0.000392 s⁻¹ | 497000 M⁻¹ s⁻¹
2265-B06 (antibody, V domains shown, also called Antibody 5) VH: EVQLVESGGGLVQPGGSLRLSCAASGFNIRVSGIHWVRQAPGKGLEWVGFINPAGGYTDYADSVKGRFTISADTSKNTAYLQMNSLRAEDTAVYYCARDYVQAYWTYVLDYWGQGTLVTVSS VL: not shown | 26700 MFI | 5.1 nM | 11600 MFI | 4.5 nM | 3.67 nM | 0.0013 s⁻¹ | 354000 M⁻¹ s⁻¹ | 0.546 nM | 0.000385 s⁻¹ | 705000 M⁻¹ s⁻¹
2265-C03 (antibody, V domains shown, also called Antibody 11) VH: EVQLVESGGGLVQPGGSLRLSCAAPGFNISVPGIHWVRQAPGKGLEWVGFINPAGGYTDYADSVKGRFTISADTSKNTAYLQMNSLRAEDTAVYYCARDYVPQYWTYVLDYWGQGTLVTVSS VL: not shown |  |  | 12500 MFI | 5.3 nM | 5.83 nM | 0.00177 s⁻¹ | 304000 M⁻¹ s⁻¹ | 0.724 nM | 0.000425 s⁻¹ | 587000 M⁻¹ s⁻¹
2265-F05 (antibody, V domains shown, also called Antibody 3) VH: EVQLVESGGGLVQPGGSLRLSCAASGFNIIAPGIHWVRQAPGKGLEWVGFINPAGGYTDYADSVKGRFTISADTSKNTAYLQMNSLRAEDTAVYYCARDYVNAYWTYVLDYWGQGTLVTVSS VL: not shown | 26600 MFI | 3.4 nM | 11900 MFI | 6.2 nM | 4.39 nM | 0.00114 s⁻¹ | 260000 M⁻¹ s⁻¹ | 0.469 nM | 0.00024 s⁻¹ | 512000 M⁻¹ s⁻¹
2265-C02 (antibody, V domains shown, also called Antibody 12) VH: EVQLVESGGGLVQPGGSLRLSCAASGFNIGVSGIHWVRQAPGKGLEWVGFINPAGGYTDYAGSVKGRFTISADTSKNTAYLQMNSLRAEDTAVYYCARDYIYSYWTYVLDYWGQGTLVTVSS VL: not shown | 24100 MFI | 4.9 nM | 11500 MFI | 4.4 nM | 4.22 nM | 0.00137 s⁻¹ | 325000 M⁻¹ s⁻¹ | 0.758 nM | 0.000567 s⁻¹ | 747000 M⁻¹ s⁻¹
9A8 (antibody, V domains shown, Chicken HybriFree-derived antibody; also called Antibody 30) VH: AVTLDESGGGLQTPGGTLSLVCKASGFTFSSFNMFWVRQAPGKGLEWVAYIRNDGNSASYGPAVKGRATISRDNGQSTVRLQLNNLRAEDTATYYCAKTTCIGSGGCIDTWGHGTEVIVSS VL: ALTQPSSVSANPGETVKITCSGGSSDYGWFQQKSPGSAPVTVIYSNNQRPSGIPSRFSGSKSGSTGTLTITGVQAEDEAIYYCANVDYTDDVFGAGTTLTVL | 17800 MFI | 8.87 nM | 21100 MFI | 33 nM |  |  |  |  |  | 
10G5 (antibody, V domains shown, Chicken HybriFree-derived antibody; also called Antibody 31) VH: AVTLDESGGGLQTPGGVLSLVCKASGFTFSSFNMFWVRQAPGKGLEWVAYISNDGSSTSYGPAVKGRATISRDNGQSTVRLQLNNLRAEDTATYFCAKTTCIGSGGCIDTWGHGTEVIVSS VL: ALTQPSSVSANPGETVKITCSGGNYDYGWYQQKSPGSAPVTLIYYNNKRPSDIPSRFSGSKSGSTGTLTITGVQAEDEAIYYCANVDSTDDVFGAGTTLTVL | 24400 MFI | 7.33 nM | 25800 MFI | 65.8 nM |  |  |  |  |  | 
